Assay results from article PMC3334931, “Characterization of the Single Stranded DNA Binding Protein SsbB Encoded in the Gonoccocal Genetic Island” (PLoS ONE, 2012).

Experiments:
[1] = biological target: the molecule itself; assay: SEC; gel filtration chromatography of the purified proteins; single peaks; data not shown
SsbB (native) [2] = biological target: T1, SsbB (native) (Neisseria gonorrhoeae MS11, UniProt Q5EP75 1-143); assay: EMSA; SBA buffer; (SsbB)4 concentration; one and two tetramer complexes; EMSA: SBA buffer (10 mM NaOH, 2 mM EDTA, boric acid to pH 7.5), optional 10 mM MgCl2 and/or NaCl up to 500 mM, 4 C 15 min; AFM: 20 mM Tris pH 7.5, 150 mM NaCl; conditions: protein: recombinant; tags: none; chain copies: 4; label: 5' 32P
T1 sequence: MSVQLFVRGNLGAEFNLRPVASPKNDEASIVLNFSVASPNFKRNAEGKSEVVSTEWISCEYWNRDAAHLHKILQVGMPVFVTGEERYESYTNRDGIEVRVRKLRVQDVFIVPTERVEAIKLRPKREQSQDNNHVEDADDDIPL

SsbB (native) [3] = biological target: T1, SsbB (native); assay: tryptophan fluorescence titration; biphasic; 1 oligo per tetramer high affinity, second much weaker; EMSA: SBA buffer (10 mM NaOH, 2 mM EDTA, boric acid to pH 7.5), optional 10 mM MgCl2 and/or NaCl up to 500 mM, 4 C 15 min; AFM: 20 mM Tris pH 7.5, 150 mM NaCl; conditions: protein: recombinant; tags: none; chain copies: 4
SsbB (native) [4] = biological target: T1, SsbB (native); assay: EMSA; stoichiometric at 8 nM DNA; 1 tetramer per oligo; Cy3 raises affinity at least 10-fold; EMSA: SBA buffer (10 mM NaOH, 2 mM EDTA, boric acid to pH 7.5), optional 10 mM MgCl2 and/or NaCl up to 500 mM, 4 C 15 min; AFM: 20 mM Tris pH 7.5, 150 mM NaCl; conditions: protein: recombinant; tags: none; chain copies: 4; label: 5' Cy3
SsbB (native) [5] = biological target: T1, SsbB (native); assay: EMSA (Coomassie); 1 uM tetramer, 0.25 uM oligo; minimal frame for two tetramers; EMSA: SBA buffer (10 mM NaOH, 2 mM EDTA, boric acid to pH 7.5), optional 10 mM MgCl2 and/or NaCl up to 500 mM, 4 C 15 min; AFM: 20 mM Tris pH 7.5, 150 mM NaCl; conditions: protein: recombinant; tags: none; chain copies: 4
SsbB (native) [6] = biological target: T1, SsbB (native); assay: EMSA (Coomassie); 1 uM tetramer, 5 uM oligo; minimal frame for one tetramer; EMSA: SBA buffer (10 mM NaOH, 2 mM EDTA, boric acid to pH 7.5), optional 10 mM MgCl2 and/or NaCl up to 500 mM, 4 C 15 min; AFM: 20 mM Tris pH 7.5, 150 mM NaCl; conditions: protein: recombinant; tags: none; chain copies: 4

Binder	stoichiometry N [1]	binding result (SsbB (native) [3])	also measured
native SsbB (single stranded DNA binding protein SsbB encoded in the Gonococcal Genetic Island of Neisseria gonorrhoeae) (natural protein, UniProt Q5EP75 1-143, looked up, expressed as the native (untagged) protein; also called WT; GGI SSB; source: E. coli C43 (DE3), purified (Hi-Trap Q, DNA-cellulose, Superdex SD200)) MSVQLFVRGNLGAEFNLRPVASPKNDEASIVLNFSVASPNFKRNAEGKSEVVSTEWISCEYWNRDAAHLHKILQVGMPVFVTGEERYESYTNRDGIEVRVRKLRVQDVFIVPTERVEAIKLRPKREQSQDNNHVEDADDDIPL	4	–	–
OneSTrEP-tagged SsbB (natural protein, Neisseria gonorrhoeae, UniProt Q5EP75 1-143, looked up, source: E. coli C43 (DE3), purified (Strep-tactin Sepharose, Hi-Trap Q, Superdex SD200); not shown: OneSTrEP tag, N-terminal, kept) MSVQLFVRGNLGAEFNLRPVASPKNDEASIVLNFSVASPNFKRNAEGKSEVVSTEWISCEYWNRDAAHLHKILQVGMPVFVTGEERYESYTNRDGIEVRVRKLRVQDVFIVPTERVEAIKLRPKREQSQDNNHVEDADDDIPL	4	–	–
His-tagged SsbB (natural protein, Neisseria gonorrhoeae, UniProt Q5EP75 1-143, looked up, also called N- His- tagged SsbB; source: E. coli C43 (DE3), purified (Hi-Trap Chelating Ni, Hi-Trap Q, Superdex SD200); not shown: His tag, N-terminal, kept) MSVQLFVRGNLGAEFNLRPVASPKNDEASIVLNFSVASPNFKRNAEGKSEVVSTEWISCEYWNRDAAHLHKILQVGMPVFVTGEERYESYTNRDGIEVRVRKLRVQDVFIVPTERVEAIKLRPKREQSQDNNHVEDADDDIPL	4	–	–
32P-dT75 (ssDNA) DNA: TTTTTTTTTTTTTTTTTTTTTTTTTTTTTTTTTTTTTTTTTTTTTTTTTTTTTTTTTTTTTTTTTTTTTTTTTTT	–	–	Kd (SsbB (native) [2]): ~100 nM
TTTTTTTTTTTTTTTTTTTTTTTTTTTTTTTTTTTTTTTTTTTTT (ssDNA) [dT45]	–	binds	–
TTTTTTTTTTTTTTTTTTTTTTTTTTTTTTTTTTT (ssDNA) [Cy3-dT35]	–	–	binding result (SsbB (native) [4]): binds
TTTTTTTTTTTTTTTTTTTTTTTTTTTTTTTTTTT (ssDNA) [dT35]	–	binds	–
dT70 (ssDNA) DNA: TTTTTTTTTTTTTTTTTTTTTTTTTTTTTTTTTTTTTTTTTTTTTTTTTTTTTTTTTTTTTTTTTTTTTT	–	–	binding result (SsbB (native) [5]): binds
TTTTTTTTTTTTTTT (ssDNA) [dT15]	–	–	binding result (SsbB (native) [6]): binds
TTTTTTTTTTTTTTTTTTTTTTTTT (ssDNA) [dT25]	–	binds	–
